# Source: article PMC3481545
# Target: Activin (UniProt P08476)
# Experiment: SPR
row,Binder,Kd
1,BMPR-II ECD Y40P (domain or fragment) ASQNQERLCAFKDPPQQDLGIGESRISHENGTILCSKGSTCYGLWEKSKGDINLVKQGCWSHIGDPQECHYEECVVTTTPPSIQNGTYRFCCCSTDLCNVNFTENFPPPDTTPLSPPHSFNRDET,70 µM
2,BMPR-II ECD G47N (domain or fragment) ASQNQERLCAFKDPYQQDLGINESRISHENGTILCSKGSTCYGLWEKSKGDINLVKQGCWSHIGDPQECHYEECVVTTTPPSIQNGTYRFCCCSTDLCNVNFTENFPPPDTTPLSPPHSFNRDET,30 µM
3,BMPR-II ECD S107P (domain or fragment) ASQNQERLCAFKDPYQQDLGIGESRISHENGTILCSKGSTCYGLWEKSKGDINLVKQGCWSHIGDPQECHYEECVVTTTPPPIQNGTYRFCCCSTDLCNVNFTENFPPPDTTPLSPPHSFNRDET,23 µM
4,BMPR-II ECD Y40G (domain or fragment) ASQNQERLCAFKDPGQQDLGIGESRISHENGTILCSKGSTCYGLWEKSKGDINLVKQGCWSHIGDPQECHYEECVVTTTPPSIQNGTYRFCCCSTDLCNVNFTENFPPPDTTPLSPPHSFNRDET,54 µM

# Results, then the binder that gave them:
row,Kd,Binder
1,26 µM,"human recombinant BMPR-II ECD, wild type (domain or fragment) ASQNQERLCAFKDPYQQDLGIGESRISHENGTILCSKGSTCYGLWEKSKGDINLVKQGCWSHIGDPQECHYEECVVTTTPPSIQNGTYRFCCCSTDLCNVNFTENFPPPDTTPLSPPHSFNRDET"
2,35 µM,BMPR-II ECD Y40Q (domain or fragment) ASQNQERLCAFKDPQQQDLGIGESRISHENGTILCSKGSTCYGLWEKSKGDINLVKQGCWSHIGDPQECHYEECVVTTTPPSIQNGTYRFCCCSTDLCNVNFTENFPPPDTTPLSPPHSFNRDET
3,46 µM,BMPR-II ECD Y40R (domain or fragment) ASQNQERLCAFKDPRQQDLGIGESRISHENGTILCSKGSTCYGLWEKSKGDINLVKQGCWSHIGDPQECHYEECVVTTTPPSIQNGTYRFCCCSTDLCNVNFTENFPPPDTTPLSPPHSFNRDET
